Measured values published in the supplement of paper PMC10126150.
± gives the standard deviation of the averaged measurements.

test system: ATP; assay: switch fluorescence ratio, 500 uM ATP over buffer (Cy3 cluster intensity, sum of 5 cycles each) (fold (ratio)); higher = stronger signal-on switching upon ATP binding; sequences stand for … in TCGTCGGCAGCGTCAGATGTGTATAAGAGACAGTTTTTTTTTTTTTTTTTTTTTTTTT…TC; settings: aptamer strand: ATP DNA aptamer (quencher-CACCTGGGGGAGTATTGCGGAGGAAGG + anchor), 100 nM annealed; ATP concentration: 500 uM
Outline: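 Clusters carrying Cy3-labelled switching strands on a modified Illumina MiSeq flow-cell were annealed to 100 nM quencher-labelled ATP aptamer and imaged in selection buffer. They were imaged again after 15 min with 500 uM ATP at 22 °C, over five buffer/ATP cycles with NaOH stripping and re-annealing in between. For each cluster, the fluorescence ratio is the summed Cy3 intensity of the target cycles divided by that of the buffer cycles, averaged per switch-domain sequence. Clusters outside 100-1000 RFU were left out.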
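Also: ATP exposure 15 min at 22 °C before imaging.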

Row | Sequence | switch fluorescence ratio
1 | TTCAGGCATG | 0.999 ± 0.04
2 | GATAGTGATA | 1.01 ± 0.019
3 | TTGTGTAGTC | 1.005 ± 0.0091
4 | GGTTGTGTTA | 0.998 ± 0.013
5 | AATAATTAAA | 0.9861 ± 0.0097
6 | TAATACCCCG | 1.06 ± 0.054
7 | CCTGGTTTTG | 1.04 ± 0.028
8 | GGATTGGTAA | 0.9919 ± 0.00028
9 | TGTTTGGGGG | 1.01 ± 0.036
10 | TTAAGTGTAA | 0.9697 ± 0.0036
11 | GCTAGTAAGA | 1.014 ± 0.008
12 | CCGGATTGTC | 1.13 ± 0.044
13 | GTATTAATTT | 0.9833 ± 0.0046
14 | GCATGATTTA | 1 ± 0.051
15 | GTTCACGGGA | 1 ± 0.058
16 | CTGTGTGAAG | 1 ± 0.038
17 | GGAATTTGGA | 0.983 ± 0.057
18 | GGGTGGGGTC | 1 ± 0.034
19 | ATTAAAAGA | 1.01 ± 0.023
20 | CGTTATAGTC | 1.02 ± 0.047
21 | ATGCAAACGA | 1.23 ± 0.065
22 | TTAGTTTCAG | 1.012 ± 0.0033

Row | Sequence | switch fluorescence ratio
23 | TTGCGTTTCT | 1.08 ± 0.086
24 | CCGAGGAATG | 1.106 ± 0.0083
25 | GGGTCATTGA | 0.998 ± 0.024
26 | CTGTGAGTTT | 1.007 ± 0.0094
27 | ACGGTGGGTA | 1 ± 0.038
28 | CTGAATCCTA | 1.01 ± 0.017
29 | TCTTCGGCGA | 1.46 ± 0.16
30 | TATTTCGGGA | 0.994 ± 0.026
31 | GCCTAAAGTT | 0.988 ± 0.015
32 | CATTTTTGGC | 1.03 ± 0.027
33 | CAGTGGAGGA | 1 ± 0.024
34 | GAATTACTAT | 1.038 ± 0.0087
35 | ACAGACAGCG | 1.06 ± 0.022
36 | AAGGAAACAC | 1.96 ± 1.3
37 | ACTCTGTTTT | 1.01 ± 0.012
38 | CGGGCCTCCG | 1.152 ± 0.0046
39 | CAGTTCGGGG | 0.9729 ± 0.0094
40 | GGAATTTGGG | 0.99 ± 0.021
41 | CCGGGGAACA | 1.004 ± 0.0069
42 | GGGGAAGCCG | 1.01 ± 0.027
43 | ATCATACTGT | 1.007 ± 0.0024
44 | TTGTTCGATT | 1 ± 0.034

Row | Sequence | switch fluorescence ratio
45 | TGTTAGGTAA | 1.22 ± 0.32
46 | CATTTCGAAC | 1.02 ± 0.027
47 | GACGGGCAAG | 1.02 ± 0.053
48 | CGGGTGGGAT | 1.006 ± 0.0035
49 | GATGGGTG | 1.03 ± 0.082
50 | CAGTAGGGTA | 1 ± 0.045
51 | TAGGGATCCC | 1.04 ± 0.028
52 | GCTCCTACGA | 1.46 ± 0.046
53 | AGGGAATCGG | 0.976 ± 0.03
54 | TAAGGGTCTT | 0.996 ± 0.047
55 | CAATCTACGC | 1.11 ± 0.038
56 | GCTGTAGGTG | 1.039 ± 0.0033
57 | GTTTACGGGC | 1.03 ± 0.027
58 | ATATTTGAGT | 0.9878 ± 0.0045
59 | TTAATGGTTA | 1.02 ± 0.029
60 | TATTCAGTCG | 0.9927 ± 0.0051
61 | TCCTGTACTG | 1.04 ± 0.062
62 | GCTCTGAGTA | 1.04 ± 0.073
63 | CAGGCCTAGG | 0.946 ± 0.024
64 | TGATGTTTTT | 1.01 ± 0.024
65 | GTGTATAGAG | 0.99 ± 0.051
66 | GGACTAGGTT | 1.006 ± 0.0033

Row | Sequence | switch fluorescence ratio
67 | CGTGGCGCGG | 0.9942 ± 0.0096
68 | GAAGTGGGGG | 1.01 ± 0.042
69 | ATGCGTGTTT | 1.003 ± 0.0014
70 | CGTTGAAAGT | 0.991 ± 0.015
71 | AATGATCGGG | 1.004 ± 0.0094
72 | TGGAAAAGGG | 1.032 ± 0.0082
73 | TCGCGAATGG | 1.11 ± 0.02
74 | AGCTGATCTA | 0.986 ± 0.022
75 | TTTATGTATT | 1 ± 0.022
76 | ACCATTGGGG | 0.993 ± 0.031
77 | CGGAGGTAGG | 1.01 ± 0.043
78 | TCAGAGACCC | 1.006 ± 0.009
79 | CGTGGGGGTA | 0.996 ± 0.025
80 | GATTAAAAGT | 0.969 ± 0.011
81 | ATGTCCGGGT | 1.03 ± 0.032
82 | GACTTTGGTG | 1.01 ± 0.026
83 | ATAGAGGAGG | 1 ± 0.021
84 | ACTTGAACGG | 1.16 ± 0.034
85 | TTGGGTACAT | 1.02 ± 0.011
